Patent US20220110942A1 (SAINT LOUIS UNIVERSITY, published 2022)
Ends that are not written are not given here. fluorescein = fluorescein tag at the N-terminus

B1: NCoR ID1 corepressor peptide, N-terminus fluorescein-tagged (peptide)
peptide: fluorescein-RTHLITLADHICQIITQDFARN
notes: Bought from ThermoFisher Scientific; 500 nM in the FP assay; also called NCoR box 1
B2: SMRT ID1 corepressor peptide, N-terminus fluorescein-tagged (peptide)
peptide: fluorescein-GHQRVVTLAQHISEVITQDYTRH
notes: Bought from ThermoFisher Scientific; 500 nM in the FP assay; also called SMRT box 1
B3: Human GCNF (NR6A1) ligand binding domain (LBD), residues 248-480, hexahistidine-tagged (receptor, UniProt Q15406 248-480, looked up)
chain: PQSYSLIHQLLSAEDLEPLGTPMLIEDGYAVTQAELFALLCRLADELLFRQIAWIKKLPFFCELSIKDYTCLLSSTWQELILLSSLTVYSKQIFGELADVTAKYSPSDEELHRFSDEGMEVIERLIYLYHKFHQLKVSNEEYACMKAINFLNQDIRGLTSASQLEQLNKRYWYICQDFTEYKYTHQPNRFPDLMMCLPEIRYIAGKMVNVPLEQLPLLFKVVLHSCKTSVGKE
notes: range 248-480; Expressed in E. coli as a 263-amino acid hexahistidine-tagged construct (30.4 kDa); about 60 kDa homodimer by analytical size exclusion; The tag is placed first as a guess; also called GCNF LBD; wild-type GCNF; not shown: 3C protease-cleavable hexahistidine tag from pET45b(+)
B4: NCoR ID2 corepressor peptide, N-terminus fluorescein-tagged (peptide)
peptide: fluorescein-DPASNLGLEDIIRKALMGSFDDK
notes: Bought from ThermoFisher Scientific; 500 nM in the FP assay; also called NCoR box 2

What was measured:
[1] = target: B3; test: fluorescence polarization, 500 nM fluorescein-tagged peptide, GCNF LBD titrated 0-70 µM
Method: GCNF protein binds directly to DR0 sites or direct repeats of AGGTCA with no spacing between half sites in the promoters of both the Oct4 and Nanog genes and is thought to repress target genes via interactions with corepressors SMRT and NCoR (Furhmann et al., 2001; Gu et al., 2005; Yan et al., 2000). To determine whether ligand binding can affect the interaction between GCNF and its associated corepressor proteins SMRT and NCoR, a fluorescence polarization assay was performed to monitor the ability of ligands to affect corepressor peptide recruitment to the GCNF LBD. Since GCNF LBD was predicted to interact with transcriptional corepressors NCoR and SMRT via its N-terminal portion (Furhmann et al., 2001; Yan et al., 1997; Yan et al., 2000), an FP assay was initially performed consisting of different fluorescein-tagged peptides derived from these corepressors. […] Meanwhile, titrating 34, but not ligand 80, increased the recruitment of SMRT ID2, the tighter binding corepressor peptide (FIG. 4C). […]
(§1) FP Assay. Fluorescence polarization (FP) assays were performed in triplicate on a 384-well Corning 3820 black opaque plate using a Biotek Synergy Neo2 HTS multimode microplate reader at excitation and emission wavelengths of 485 nm and 538 nm, respectively. Data were analyzed and plotted using GraphPad Prism as mean±SEM.

[2] = target: B3; test: fluorescence polarization, 500 nM fluorescein-tagged peptide, GCNF LBD titrated
Method: as §1
For the corepressor peptide FP binding assay, 70.0, 35.0, 17.5, 8.8, 4.4, 2.2, 1.1, 0.55, 0.27, 0.14, and 0 μM of GCNF LBD was mixed with 500 nM N-terminus fluorescein-tagged corepressor peptides NCoR ID1 ([…] (SEQ ID NO: 1)), NCoR ID2 ([…] (SEQ ID NO: 2)), SMRT ID1 ([…] (SEQ ID NO: 3)), or SMRT ID2 ([…] (SEQ ID NO: 4)) (ThermoFisher Scientific) in assay buffer containing 50 mM HEPES (pH 7.5), 50 mM KCl, 5 mM TCEP, 0.5 mM EDTA and 0.005% Tween20. The relative polarization was plotted against the GCNF LBD concentration and fitted via nonlinear regression (one site specific binding with Hill slope) to extract KD.

[3] = target: the molecule itself; test: analytical size exclusion chromatography with SDS-PAGE of the pooled fractions

Binder	binding result [2]	further results
B1	–	Kd [1]: 32 µM
B2	no binding (tested: GCNF LBD up to 70.0 µM)	–
B3	–	binding result [3]: binds
B4	no binding (tested: GCNF LBD up to 70.0 µM)	–
